According to IntAct's records for PubMed 19914239:

B1: Folliculin (Rattus norvegicus (Rat)), Q76JQ2 (parent)
chain: MNAIVALCHFCELHGPRTLFCTEVLHAPLPQGAGSGDSPGQVEQAEEEEGGIQMSSRVRAHSPAEGASTDSSSPGPKKSDMCEGCRSLAVGHPGYISHDKETSIKYVSHQHPNHPQLFSIVRQACVRSLSCEVCPGREGPIFFGDEQHGFVFSHTFFIKDSLARGFQRWYSIIAIMMDRIYLINSWPFLLGKIRGIISELQGKALKVFEAEQFGCPQRAQRMNTAFTPFLHQRNGNAARSLTSLTSDDNLWACLHTSFAWLLKACGSRLTEKLLEGAPTEDTLVQMEKLADLEEESESWDNSEAEEEEKAPATAEGAEGRELASCPTESSFLSACGSWQPPKLSVFKSLRHMRQVLGAPSFRMLAWHVLMGNQVIWKSRDVNLVHSAFEVLRTMLPVGCVRIIPYSSQYEEAYRCNFLGLSPPVPIPAHVLASEFVVVVEVHTATRSNPHPAGCEDDQSLSKYEFVVTSGSPVAADRVGPTILNKMEAALTNQNLSVDVVDQCLVCLKEEWMNKVKVLFKFTKVDSRPKEDTQKLLSVLGASEEDNVKLLKFWMTGLSKTYKSHLMSTVRSPTAAESRN

Variants of: B1
Settings: with aapk1_rat Prkaa1, P54645
Sequence of aapk1_rat Prkaa1, P54645 (P54645 whole entry): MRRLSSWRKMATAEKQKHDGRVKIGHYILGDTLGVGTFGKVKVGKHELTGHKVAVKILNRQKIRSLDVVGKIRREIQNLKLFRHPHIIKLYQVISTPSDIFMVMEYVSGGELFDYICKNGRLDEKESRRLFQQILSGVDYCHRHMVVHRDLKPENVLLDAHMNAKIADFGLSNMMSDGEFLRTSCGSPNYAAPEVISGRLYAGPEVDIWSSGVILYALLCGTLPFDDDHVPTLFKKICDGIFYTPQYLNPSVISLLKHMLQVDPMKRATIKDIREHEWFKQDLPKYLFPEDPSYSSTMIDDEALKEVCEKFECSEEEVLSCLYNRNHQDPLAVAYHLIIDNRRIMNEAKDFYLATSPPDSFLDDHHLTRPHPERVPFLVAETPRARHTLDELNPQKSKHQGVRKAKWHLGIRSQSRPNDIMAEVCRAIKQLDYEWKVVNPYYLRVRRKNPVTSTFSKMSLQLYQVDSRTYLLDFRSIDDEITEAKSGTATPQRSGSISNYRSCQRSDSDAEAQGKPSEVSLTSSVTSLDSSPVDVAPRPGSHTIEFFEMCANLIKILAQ

Row | effect of a mutation on the interaction | Variant
1 | increasing interaction | S62D

Variants of: B1
Settings: with aapk1_rat Prkaa1, P54645
Remark: another data set of the same source

Row | effect of a mutation on the interaction | Variant
2 | decreasing interaction | S62A
